Experimental data published in paper PMC8614642.

Molecular target: recombinant K38 depolymerase region (residues 147-742) of the tailspike gp46 of Acinetobacter pittii phage vB_Api_3043-K38 (Acinetobacter pittii phage vB_Api_3043-K38)
Assay: SEC; analytical size exclusion on Superose 6 10/300 GL, 10 mM PBS pH 7.5, 4 °C, 0.75 mL/min, mass estimated from calibration standards

Q: With “recombinant K38 depolymerase region (residues 147-742) of the tailspike gp46 of Acinetobacter pittii phage vB_Api_3043-K38 (domain or fragment)” as the substance, how does the stoichiometry N read?
A: 3
